# Residue numbers refer to the chain shown, from its start. Names may count otherwise.
# B1: mAb1-ADLE-L242C-K334C (antibody)
# chain 1: QVQLVQSGAEVKKPGASVKVSCKASGYSFTSYGISWVRQAPGQGLEWMGWISTYKGYTQYAQNFQGRVTITTDTPATTVYMELRSLRSDDTAVYYCARVLSETGYFYYYYYGMDVWGQGTLVTVSSASTKGPSVFPLAPSSKSTSGGTAALGCLVKDYFPEPVTVSWNSGALTSGVHTFPAVLQSSGLYSLSSVVTVPSSSLGTQTYICNVNHKPSNTKVDKKVEPKSCDKTHTCPPCPAPELLAGPDVFCFPPKPKDTLMISRTPEVTCVVVDVSHEDPEVKFNWYVDGVEVHNAKTKPREEQYNSTYRVVSVLTVLHQDWLNGKEYKCKVSNKALPLPEECTISKAKGQPREPQVYTLPPSRDELTKNQVSLTCLVKGFYPSDIAVEWESNGQPENNYKTTPPVLDSDGSFFLYSKLTVDKSRWQQGNVFSCSVMHEALHNHYTQKSLSLSPG
# chain 2: QAVVTQPPSVSGAPGQRVTISCTGSSSNIGADYNVHWYQLLPGTAPKLLIYGNTNRPSGVPDRFSGSKSGTSASLAITGLQAEDEADYYCQSYDSSLSASVFGGGTKLTVLGQPKAAPSVTLFPPSSEELQANKATLVCLISDFYPGAVTVAWKADSSPVKAGVETTTPSKQSNNKYAASSYLSLTPEQWKSHRSYSCQVTHEGSTVEKTVAPTECS
# B2: mAb1-ADE-DQ (antibody)
# chain 1: B1 chain 1 with C251L, T265D, T316Q, L339A, C343K
# chain 2: B1 chain 2
# B3: mAb1-ADE-DQ-R292C-V302C (antibody)
# chain 1: B1 chain 1 with C251L, T265D, R301C, V311C, T316Q, L339A, C343K
# chain 2: B1 chain 2
# B4: mAb1-ADLE (antibody)
# chain 1: B1 chain 1 with C251L, C343K
# chain 2: B1 chain 2
# B5: mAb1-DE (antibody)
# chain 1: not shown
# chain 2: B1 chain 2
# B6: mAb1-ADE-L242C-K334C (antibody)
# chain 1: B1 chain 1 with L339A
# chain 2: B1 chain 2
# B7: mAb1 (wt) (IgG1) (antibody)
# chain 1: not shown
# chain 2: B1 chain 2
# B8: mAb1-ADLE-R292C-V302C (antibody)
# chain 1: B1 chain 1 with C251L, R301C, V311C, C343K
# chain 2: B1 chain 2
# B9: mAb1-ADE-DQ-L242C-K334C (antibody)
# chain 1: B1 chain 1 with T265D, T316Q, L339A
# chain 2: B1 chain 2
# B10: mAb1-ADE (antibody)
# chain 1: B1 chain 1 with C251L, L339A, C343K
# chain 2: B1 chain 2
# B11: mAb1-ADE-R292C-V302C (antibody)
# chain 1: B1 chain 1 with C251L, R301C, V311C, L339A, C343K
# chain 2: B1 chain 2
# Experiments:
# human FcγRIIa H131 = target: T1, human FcγRIIa H131 (human, UniProt P12318 34-317, limits assumed); assay: FACS, assay 1 n=3
# T1 construct: FACS implies display on cells, but the methods name no FcγRIIa cell line; also called huFcγRIIa H131
# T1 sequence (looked up): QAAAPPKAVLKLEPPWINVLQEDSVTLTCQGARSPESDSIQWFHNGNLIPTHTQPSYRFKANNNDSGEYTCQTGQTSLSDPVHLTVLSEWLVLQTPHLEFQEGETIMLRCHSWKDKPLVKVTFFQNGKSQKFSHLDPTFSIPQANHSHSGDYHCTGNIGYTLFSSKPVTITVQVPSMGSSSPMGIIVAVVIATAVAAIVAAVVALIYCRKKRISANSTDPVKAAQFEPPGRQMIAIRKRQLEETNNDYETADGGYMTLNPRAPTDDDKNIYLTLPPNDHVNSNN
# human FcγRIIa R131 = target: T2, human FcγRIIa R131 (human, UniProt P12318 34-317, limits assumed); assay: FACS, assay 1 n=3
# T2 construct: FACS implies display on cells, but the methods name no FcγRIIa cell line; also called huFcγRIIa R131
# T2 sequence (looked up): T1 sequence (looked up) with H134R
# [1] = target: T3, huFcγRIIIa_V158 His protein (human, UniProt P08637 17-208); assay: SPR, His-receptor captured, assay 1 n=3
# T3 construct: also called His-tagged recombinant human FcγRIIIa-V158
# [2] = target: T4, huFcγRIIIa_F158 His protein (human, UniProt P08637 17-208); assay: SPR, His-receptor captured, assay 1 n=3
# human FcRn [3] = target: T5, human FcRn (human, UniProt P55899 24-297); assay: SPR pH 6.0, huFcRn captured, assay 1 n=3
# T5 construct: also called huFcRn; recombinant human FcRn
# [4] = target: T6, FcγRIIIa V158 on HEK293T cells (human, UniProt P08637 17-254); assay: FACS on HEK293T-FcγRIIIa cells, assay 1 n=3
# T6 construct: whole, on cells
# [5] = target: T7, FcγRIIIa F158 on HEK293T cells (human, UniProt P08637 17-254); assay: FACS on HEK293T-FcγRIIIa cells, assay 1 n=3
# T7 construct: whole, on cells; also called HEK293T-FcγRIIIa F158
# [6] = target: T3, huFcγRIIIa_V158 His protein; assay: SPR, His-receptor captured, assay 2 n=3
# [7] = target: T4, huFcγRIIIa_F158 His protein; assay: SPR, His-receptor captured, assay 2 n=3
# human FcRn [8] = target: T5, human FcRn; assay: SPR pH 6.0, huFcRn captured, assay 2 n=3
# [9] = target: T6, FcγRIIIa V158 on HEK293T cells; assay: FACS on HEK293T-FcγRIIIa cells, assay 2 n=1
# [10] = target: T7, FcγRIIIa F158 on HEK293T cells; assay: FACS on HEK293T-FcγRIIIa cells, assay 2 n=1
# [11] = target: T7, FcγRIIIa F158 on HEK293T cells; assay: FACS on HEK293T-FcγRIIIa cells, assay 1 n=3; bracketed value under the F158 cell
# [12] = target: T6, FcγRIIIa V158 on HEK293T cells; assay: FACS on HEK293T-FcγRIIIa cells, assay 1 n=3; bracketed value under the V158 cell
# [13] = target: T7, FcγRIIIa F158 on HEK293T cells; assay: FACS on HEK293T-FcγRIIIa cells, assay 1 n=3; cell shifted up, taken as F158
# T3 sequence (P08637 17-208 F176V limits assumed): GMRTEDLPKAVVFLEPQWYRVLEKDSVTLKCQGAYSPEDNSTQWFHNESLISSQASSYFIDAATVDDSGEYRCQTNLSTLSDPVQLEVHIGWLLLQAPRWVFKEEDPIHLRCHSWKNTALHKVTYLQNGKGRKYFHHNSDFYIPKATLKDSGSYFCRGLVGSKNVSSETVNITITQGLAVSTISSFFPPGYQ
# T6 sequence (P08637 17-254 F176V): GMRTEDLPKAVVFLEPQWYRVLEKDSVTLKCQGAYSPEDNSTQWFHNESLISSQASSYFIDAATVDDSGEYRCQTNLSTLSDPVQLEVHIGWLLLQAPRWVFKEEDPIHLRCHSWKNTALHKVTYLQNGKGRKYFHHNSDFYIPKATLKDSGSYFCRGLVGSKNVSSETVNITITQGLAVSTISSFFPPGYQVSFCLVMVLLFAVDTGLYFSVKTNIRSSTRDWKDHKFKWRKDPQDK
# T4 sequence (P08637 17-208 limits assumed): as the sequence (P08637 17-208 F176V limits assumed) above, with V160F counted along it
# T5 sequence (P55899 24-297): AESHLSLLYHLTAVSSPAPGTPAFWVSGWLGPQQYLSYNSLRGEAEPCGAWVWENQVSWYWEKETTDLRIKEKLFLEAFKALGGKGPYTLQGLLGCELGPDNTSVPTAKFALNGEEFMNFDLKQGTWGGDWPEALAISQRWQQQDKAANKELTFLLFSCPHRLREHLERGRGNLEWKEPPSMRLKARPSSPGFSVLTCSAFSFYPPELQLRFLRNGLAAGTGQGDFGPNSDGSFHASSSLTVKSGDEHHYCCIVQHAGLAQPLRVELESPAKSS
# T7 sequence (P08637 17-254): as the sequence (P08637 17-254 F176V) above, with V160F counted along it
Binder,EC50 (human FcγRIIa H131) [nM],EC50 (human FcγRIIa R131) [nM],Kd [1] [nM],Kd [2] [nM],Kd (human FcRn [3]) [nM],EC50 [4] [nM],EC50 [5] [nM],Kd [6] [nM],Kd [7] [nM],Kd (human FcRn [8]) [nM],EC50 [9] [nM],EC50 [10] [nM],EC50 [11] [nM],EC50 [12] [nM],EC50 [13] [nM]
B1,145,428,161,148,956,5,11,,,,,,,,
B2,14,18,155,183,217,4,13,,,,,,,,
B3,101,45,214,202,198,10,17,,,,,,,,
B4,70,85,77,94,993,3,4,22,46,811,5,7,4.37,2.71,
B5,106,198,57,141,996,2,11,17,48,761,4,18,,,
B6,102,142,162,193,829,5,18,,,,,,,,
B7,341,303,1620,3870,1210,186,1060,386,1330,941,244,744,,,1060
B8,155,144,258,296,1130,12,25,,,,,,,,
B9,68,152,191,211,161,7,19,,,,,,,,
B10,20,20,107,150,1040,3,9,,,,,,,,
B11,92,43,172,211,1310,12,19,,,,,,,,
